The values below come from patent US20060246520A1, “Gamma delta t cell-mediated therapy” (INSTITUT NATIONAL DE LA SANTE ET DE LA RECHERCHE MEDICALE, priority 2003, published 2006).

One test deals with K562 cells. The test is described as follows: PE-labelled TCR tetramer staining of serum-depleted K562 cells incubated with apolipoproteins or competing mAb. Format: cell-based, human. Conditions: serum-depleted K562, apolipoprotein preparations 100 μg/ml. As to the method:
FIG. 3: Vγ9Vδ2 TCR binding to tumor cells and apoA-I. PE-labeled tetrameric TCRs from clone G115 and clone 73R9 were used to stain tumor cell lines and assess the influence of apolipoproteins on their tumor recognition. Shaded histograms: concentration-matched streptavidin-PE alone. Line histograms: binding of the indicated PE-labelled tetrameric TCR. (a) Cell lines were cultured in 10% fcs before staining with tetramers. (b) K562 cells were serum-depleted, incubated with 10% human serum or the indicated apolipoprotein preparations (100 μg/ml) and stained with G115 or 73R9 TCR tetramers. (c) Serum-depleted K562 cells were incubated with 100 μg/ml of HDL hApoA-I (left histogram) or hM5L (right histogram) and labeled with G115 TCR tetramers in the presence of the indicated competing mAb (20 μg/ml). […] Data are representative of three experiments.
Immunofluorescence stainings were performed in PBS containing 1% BSA and devoid of serum using FITC-conjugated goat F(ab)′2 anti-mouse Ig antibody (Caltag) as the second step reagent. Irrelevant isotype-matched control antibodies were used as negative controls. In apolipoprotein binding experiments, serum-deprived cells were incubated with serum or purified protein preparations in PBS containing 1% BSA, at room temperature, 30 minutes prior to antibody staining. 7H10 (anti-α-ATP synthase) and 3D5 (anti-β-ATP synthase) and 7F9 (anti-γ-ATP synthase) are from Molecular Probes. 4H1 (anti-human apoA-I) (Collet et al., 1997) was obtained from Dr Y. Marcel (Ottawa).
The G115 (Vγ9Vδ2) (3) and 73R9 (Vγ8Vδ3) extracellular γ and δ chains (the latter carrying a short 3′ Biotin tag) were expressed in Escherichia coli, then refolded together by rapid dilution in 1 L of 1 M L-arginine, 0.1 M Tris-HCl, pH 8.0 and 0.2 mM reduced/0.2 mM oxidized glutathione. After dialysis against 10 mM Tris-HCl pH 8.0, concentration by cation exchange chromatography at pH 5.5, and purification by size exclusion chromatography at pH 8.0, the refolded protein was biotinylated for 4 h at 30° C. with 6 μg/ml BirA and excess of free biotin was removed by dialysis against 10 mM Tris-HCl pH 8.0, 150 mM NaCl. Tetramers of γδ TCR heterodimers were obtained by mixing the biotinylated TCR with phycoerythrin-labeled streptavidin (Biosource) at a molar ratio of 10:1. For staining, 2.10^5 cells were incubated at room temperature for 45 min with phycoerythrin-labeled γδ TCR tetramers at a concentration of TCR of 30 μg/ml in PBS plus 1% BSA. Background staining was determined using phycoerytlrin-labeled streptavidin at the same concentration.

In another test the test system is immobilized Vγ9Vδ2TCR. Nature of the test: SPR: purified apolipoprotein binding to immobilized Vγ9Vδ2TCR. Also noted: species or system human. Conditions: soluble proteins injected at 100 μg/ml; immobilized TCR 335 RU. An excerpt:
FIG. 7. Surface plasmon resonance analysis. Soluble proteins were exposed to the sensorchip surface for 240 s (association phase) followed by a 240-s flow running (dissociation phase). Immobilized proteins were on sensorchips flowcell 2. Sensorgrams are representative of specific interactions (differential response) where non-specific binding that occurred on flow cell 1 (with no protein immobilized) was deduced from binding that occurred on flow cell 2. Results are expressed as resonance units (RU) as a function of time in seconds.
(c) Comparative sensorgrams of purified apoA-I (full line) and apoA-II (dotted line) binding to immobilized Vγ9Vδ2TCR (proteins were injected at 100 μg/ml). Amount of immobilized TCRγδ protein was 335 RU on flow cell 2.
ApoA-I and ATP synthase (F1 subunit) were immobilized by amine linkage on CM5 chips (Biacore AB) following NHS-EDC activation; Vγ9Vδ2-biotinylated soluble TCRs were immobilized on SA streptavidin-coated chips (Biacore AB) and binding was analyzed in a Biacore 3000 apparatus (BiacoreAB). Soluble ligands were injected at a flow rate of 20 μl/min, exposed to the surface for 240 s (association phase) followed by a 240-s flow running during which the dissociation occurred. […] Results are expressed as resonance units (RU) as a function of time in seconds.

Test [1] deals with Daudi cells. Nature of the test: 125I-labelled free apoA-I binding assay on Daudi cells (Scatchard). Also noted: species or system human. Conditions: 2 hours at 4° C.; single binding receptor; read-out: KD of binding to Daudi cells (Scatchard analysis). How it is done:
(§1) (e): ^125I-labelled free apoA-I binding was measured after 2 hours incubation at 4° C. on Daudi and Raji cells. Top and bottom panels: binding isotherm of ^125I-labeled free apoA-I to Daudi (top) and Raji (bottom) cells. (◯): total binding, (σ): non-specific binding; (●): specific binding. Middle panel: Scatchard representation of specific binding on Daudi cells.
(§2) The binding experiments were performed at 4° C. for 2 hours as previously described (Barbaras et al., 1994). Briefly, cells (9 μg of cell proteins per point) were incubated in PBS for 2 hours at 4° C. with increasing concentrations of labeled apoA-I. Cells were filtered on 0.22 μm filters (GVWP Millipore-France) and washed four times with 1% BSA in PBS. Filters were used for radioactivity measurements. Non-specific binding was determined in the presence of a 100-fold excess (as compared to the KD value) of the corresponding unlabeled ligand. Binding was analyzed using a weighted non-linear curve-fitting program, based on the LIGAND analysis program (Prism-GraphPad).

The subject of a further test is Raji cells. Nature of the test: 125I-labelled free apoA-I binding assay on Raji cells. Also noted: species or system human. To be noted: 2 hours at 4° C. As to the method:
as §1, §2

The test system of a further test is Vγ9Vδ2 T cells. The test is described as follows: TNFα secretion by T cell clones stimulated with protein-coated latex beads. Format: cell-based, human. Conditions: serum-free (sfm). An excerpt:
FIG. 6: Induction of Vγ9Vδ2 T cell lymphokine secretion by immobilized ATP-synthase. HDL-derived apoA-I and ATP synthase were immobilized on latex beads and these were used to stimulate T cell populations. none: no stimulation; empty: beads saturated with BSA; apoA-I: beads coated with apoA-I only. AS: beads coated with the F1 extra-membrane subunit of bovine ATP synthase. AS/apoA-I: beads coated with both protein preparations.
[…] The capacity of γδ clones G25, G115, 73R9 to secrete significant amounts of TNFα upon stimulation was checked by using Daudi cells as target cells as well as PMA/ionomycin or PHA. The αβ clone A4.19 secretes saturating quantities of TNFα upon PMA/ionomycin or PHA stimulation (not shown). […]
2 h- ^51Cr-release assays were performed in standard conditions except for the use of serum-free conditions in some experiments: in sensitization experiments with apolipoprotein preparations, target tumor cells were serum-deprived as described for facs analysis, loaded with ^51Cr (100 μCi/10^6 cells, 1 hour, 37° C.), extensively washed in RPMI and resuspended in sfm medium. […] Specific lysis was calculated as the percentage of maximum release. […] IFNγ was titrated by a specific Elisa technique, whereas TNFα concentration was assessed by a biological assay based on WEHI cells viability. […]

Test [2] deals with single binding receptor for apoA-I on Daudi cells. The test is described as follows: Scatchard analysis of 125I-labelled free apoA-I binding to Daudi cells, 2 h at 4° C.
Test [3] addresses human lipid-free apoA-I prepared from high density lipoprotein particles (HDL-apoA-I) (human) (UniProt P02647). The test is described as follows: SPR (Biacore 3000), apoA-I immobilized (2260 RU), TCR injected at 125 nM to 2 µM.
Test [4] concerns the target purified bovine ATP synthase (F1 subunit) (bovine) (UniProt P19483). The test is described as follows: SPR (Biacore 3000), ATP synthase (F1) immobilized (22440 RU), TCR injected at 0.5 to 4 µM.
The subject of test [5] is Daudi cells. Nature of the test: 51Cr release assay of Daudi cytolysis by effector T cell clones in serum-free medium. The test is classed as cell-based, human. Conditions: serum-depleted targets. How it is done:
FIG. 2: ApoA-I-dependent activation of Vγ9Vδ2 T cells. ^51Cr release assays were performed in serum-free medium (sfm) to assess dependance on serum and apoA-I of Daudi cytolysis by different effector T cell populations. G25 and G42: Vγ9Vδ2 T cell clones, 73R9: Vγ8Vδ3 T cell clone. M5L (bovine serum component immunopurified with M5 antibody) was tested at the indicated concentration for its ability to substitute for serum (fcs). Recombinant annexin V was used as a control purified protein.
2 h- ^51Cr-release assays were performed in standard conditions except for the use of serum-free conditions in some experiments: in sensitization experiments with apolipoprotein preparations, target tumor cells were serum-deprived as described for facs analysis, loaded with ^51Cr (100 μCi/10^6 cells, 1 hour, 37° C.), extensively washed in RPMI and resuspended in sfm medium. Effector T cells cultivated in serum-containing medium were washed extensively in RPMI, incubated for 2 hours in sfm at 37° C. and resuspended in sfm medium. […] Specific lysis was calculated as the percentage of maximum release. […] IFNγ was titrated by a specific Elisa technique, whereas TNFα concentration was assessed by a biological assay based on WEHI cells viability.

Chain of UniProt P02647 (P02647 25-267 limits assumed): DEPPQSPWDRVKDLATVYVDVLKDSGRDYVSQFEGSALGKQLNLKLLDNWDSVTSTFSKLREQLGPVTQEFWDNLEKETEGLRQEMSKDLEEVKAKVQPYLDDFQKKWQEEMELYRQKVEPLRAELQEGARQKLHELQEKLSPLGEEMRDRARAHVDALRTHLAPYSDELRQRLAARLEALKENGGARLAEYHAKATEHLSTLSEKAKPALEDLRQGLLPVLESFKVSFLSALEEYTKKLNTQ

For “apoA-II: purified apolipoprotein A-II, control of hydrophobicity similar to that of apoA-I [reference compound]”, the “effect on Vγ9Vδ2 TCR tetramer binding to K562” value in the test with K562 cells is “did not enhance”.

Regarding apolipoprotein A-I [apoA-I], the “interaction with immobilized G115 TCR” value with immobilized Vγ9Vδ2TCR is “specifically interacted”. Also, in the test on Daudi cells [1], the Kd turned out to be 80 nM. For the same molecule, the “specific binding on Raji cells” value in the test with Raji cells is listed as “absence of specific binding”. The “stimulatory activity on Vγ9Vδ2 T cells in serum-free conditions” value with Vγ9Vδ2 T cells was “relatively minor increase”. Further, in the test on K562 cells, the “effect on Vγ9Vδ2 TCR tetramer binding to K562” value is reported as “increased” and the “effect on binding of Vγ8Vδ3 TCR tetramers to K562” value is given as “neither serum, nor apoA-I, affected the binding”.

“hM5L: human serum ligand of M5 mAb, immunopurified; identity to apoA-I confirmed”: the “effect on Vγ9Vδ2 TCR tetramer binding to K562” value with K562 cells is “increased”.

With “human lipid-free apoA-I prepared from high density lipoprotein particles (HDL-apoA-I) (from UniProt P02647 25-267) (ligand)”, the Kd in test [2] came to 80 nM.

In test [3], soluble monomeric G115 TCR (Vγ9Vδ2) came in with a Kd of 810 nM, a koff of 0.00713 s⁻¹ and an on-rate constant (kon) of 8800 M⁻¹ s⁻¹. Besides, in [4], the Kd amounted to 1510 nM, the koff came to 0.00254 s⁻¹ and the kon amounted to 1680 M⁻¹ s⁻¹.

B1: M5L: bovine serum component immunopurified with M5 antibody, ~28 kDa, identified as apolipoprotein A-I (protein, UniProt P15497 25-265, looked up)
Apolipoprotein A-I: DDPQSSWDRVKDFATVYVEAIKDSGRDYVAQFEASALGKQLNLKLLDNWDTLASTLSKVREQLGPVTQEFWDNLEKETASLRQEMHKDLEEVKQKVQPYLDEFQKKWHEEVEIYRQKVAPLGEEFREGARQKVQELQDKLSPLAQELRDRARAHVETLRQQLAPYSDDLRQRLTARLEALKEGGGSLAEYHAKASEQLKALGEKAKPVLEDLRQGLLPVLESLKVSILAAIDEASKKLNAQ
Turning to B1, in the test on Daudi cells [5], the “effect on Daudi cell lysis by control Vγ8Vδ3 T cell clone (#73R9)” value is given as “neither affected by serum deprivation nor by addition of M5L”. Moreover, the “effect on Vγ9Vδ2 T cell-mediated lysis of Daudi cells” value with Daudi cells [5] (Vγ9Vδ2 clones G25, G42) was “increased Vγ9Vδ2 T cell-mediated lysis in a dose-dependent manner”.
